The results in this text go back to US20130344069A1 (SORRENTO THERAPEUTICS, published 2013).

The target in experiment [1] is T1, IGF1R on MCF7 breast cancer cells (UniProt P08069 31-1367, limits assumed).
T1 construct: whole, on cells; Endogenous receptor on MCF7 cells; also called MCF7 cells expressing IGF1R
The experiment in a line: flow cytometry on MCF7 cells, PE goat anti-human IgG secondary, median FL2-H, non-linear regression fit, the concentration axis is LogM. The procedure: (§1) This example illustrates in vitro data for anti-IGF1R antibodies cellular binding EC₅₀ measurements. […] In this example, the experimental procedure is as follows: 50,000 MCF7 breast cancer cells were aliquoted into the wells of a 96-well, v-bottom plate in 100 μl FACS Buffer (PBS+2% FBS). Cells were spun down, washed 1× with FACS Buffer, and then resuspended in 25 μl of antibody solution in triplicate. After 0.5 hr incubation, cells were washed 1× with FACS Buffer and resuspended in 50 μl PE-conjugated, goat anti-human IgG (γ-chain specific) secondary antibody (Southern Biotech Cat #2040-09). Cells were further incubated for 0.5 hr and then washed 1× with FACS Buffer. Cells were resuspended in 25 μl FACS Buffer and the median fluorescence intensity in the FL2-H channel was determined using the Intellicyt HTFC flow cytometer.
(§2) While these values range over orders of magnitude, all antibodies show strong, specific binding to MCF7 cells expressing IGF1R. Data was collected on the Intellicyt HTFC flow cytometer, processed using FlowJo software, and analyzed and plotted in Graph Pad Prizm using non-linear regression fit. Data points are shown as the median fluorescence intensity (MFI) of positively labeled cells +/− Std Error.

The next experiment has as its target Insulin Receptor (UniProt P06213-2 28-944, limits assumed). The experiment in a line: ELISA, one condition.
For experiment [2], the target named is T1, IGF1R on MCF7 breast cancer cells. The experiment can be described thus: cell-based or functional assay.
In another experiment the target is T2, rhIGF1R (human, UniProt P08069 31-932, limits assumed).
T2 construct: Recombinant protein used in the Octet measurements; also called recombinant human IGF1R
The experiment in a line: BLI, Forte Bio Octet Red; B9 on anti-hIgG Fc capture sensor.

Experiment [3] concerns the target T1, IGF1R on MCF7 breast cancer cells. The experiment can be described thus: flow cytometry, binding to MCF7 cells, PE anti-human IgG detection. The procedure: as §1, §2

T1 sequence (P08069 31-1367 limits assumed): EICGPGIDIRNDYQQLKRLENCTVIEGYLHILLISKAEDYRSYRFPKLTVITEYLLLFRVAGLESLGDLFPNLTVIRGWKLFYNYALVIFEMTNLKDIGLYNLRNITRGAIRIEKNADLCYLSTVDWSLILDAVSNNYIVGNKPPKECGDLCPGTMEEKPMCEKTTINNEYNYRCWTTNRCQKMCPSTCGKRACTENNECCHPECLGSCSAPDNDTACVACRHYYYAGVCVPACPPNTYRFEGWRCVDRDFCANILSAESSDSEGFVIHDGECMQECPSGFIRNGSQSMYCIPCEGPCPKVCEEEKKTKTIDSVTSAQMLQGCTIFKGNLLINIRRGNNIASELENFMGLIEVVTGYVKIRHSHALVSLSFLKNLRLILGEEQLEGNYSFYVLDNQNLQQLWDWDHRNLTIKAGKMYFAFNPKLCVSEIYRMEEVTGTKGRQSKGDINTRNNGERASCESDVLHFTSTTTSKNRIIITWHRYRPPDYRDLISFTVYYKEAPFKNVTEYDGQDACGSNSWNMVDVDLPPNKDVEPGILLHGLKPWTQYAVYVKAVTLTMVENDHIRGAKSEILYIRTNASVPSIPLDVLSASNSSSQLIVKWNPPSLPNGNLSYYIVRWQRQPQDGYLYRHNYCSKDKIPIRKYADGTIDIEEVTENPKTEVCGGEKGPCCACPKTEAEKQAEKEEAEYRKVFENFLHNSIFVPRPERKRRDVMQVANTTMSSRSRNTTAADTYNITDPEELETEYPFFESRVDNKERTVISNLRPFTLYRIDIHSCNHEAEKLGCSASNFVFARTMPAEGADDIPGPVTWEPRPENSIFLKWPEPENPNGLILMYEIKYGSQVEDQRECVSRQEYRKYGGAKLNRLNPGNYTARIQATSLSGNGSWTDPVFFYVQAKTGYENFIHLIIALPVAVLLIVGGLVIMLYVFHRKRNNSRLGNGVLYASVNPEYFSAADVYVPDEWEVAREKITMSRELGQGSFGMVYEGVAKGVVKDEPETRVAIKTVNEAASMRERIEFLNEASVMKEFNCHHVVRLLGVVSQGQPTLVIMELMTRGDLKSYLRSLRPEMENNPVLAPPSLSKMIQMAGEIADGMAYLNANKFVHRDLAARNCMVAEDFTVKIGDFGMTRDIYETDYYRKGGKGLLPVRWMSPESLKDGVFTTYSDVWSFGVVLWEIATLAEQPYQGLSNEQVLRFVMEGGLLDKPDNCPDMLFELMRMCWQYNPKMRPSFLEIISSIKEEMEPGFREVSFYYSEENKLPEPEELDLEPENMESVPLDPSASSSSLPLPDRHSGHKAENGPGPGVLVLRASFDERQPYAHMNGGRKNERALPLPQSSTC
Chain of Insulin Receptor (P06213 other isoform, or with tags, fused parts or gaps limits assumed): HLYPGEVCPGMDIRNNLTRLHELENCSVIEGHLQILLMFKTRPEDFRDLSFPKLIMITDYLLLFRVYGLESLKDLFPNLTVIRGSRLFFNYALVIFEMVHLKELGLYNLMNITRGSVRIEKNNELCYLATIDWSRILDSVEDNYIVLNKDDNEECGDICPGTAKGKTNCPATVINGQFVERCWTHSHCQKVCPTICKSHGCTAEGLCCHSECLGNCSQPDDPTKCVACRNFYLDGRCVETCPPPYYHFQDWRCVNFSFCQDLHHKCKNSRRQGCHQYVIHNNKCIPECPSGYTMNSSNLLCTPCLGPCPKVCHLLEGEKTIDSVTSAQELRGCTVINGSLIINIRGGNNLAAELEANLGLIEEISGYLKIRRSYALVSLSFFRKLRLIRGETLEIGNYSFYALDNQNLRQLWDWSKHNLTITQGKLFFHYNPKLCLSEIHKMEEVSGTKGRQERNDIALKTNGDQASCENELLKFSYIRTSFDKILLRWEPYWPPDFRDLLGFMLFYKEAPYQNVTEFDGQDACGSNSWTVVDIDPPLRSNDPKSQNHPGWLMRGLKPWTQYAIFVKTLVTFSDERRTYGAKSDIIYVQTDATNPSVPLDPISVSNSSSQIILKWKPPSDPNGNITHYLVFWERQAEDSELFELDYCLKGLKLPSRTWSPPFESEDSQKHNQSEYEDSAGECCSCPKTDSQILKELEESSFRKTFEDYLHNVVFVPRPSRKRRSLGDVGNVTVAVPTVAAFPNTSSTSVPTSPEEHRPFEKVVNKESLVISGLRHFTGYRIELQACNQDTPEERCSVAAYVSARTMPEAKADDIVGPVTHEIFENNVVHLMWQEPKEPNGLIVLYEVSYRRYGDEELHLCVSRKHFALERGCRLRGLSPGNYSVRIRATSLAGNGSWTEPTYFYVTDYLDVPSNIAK
T2 sequence (P08069 31-932 limits assumed): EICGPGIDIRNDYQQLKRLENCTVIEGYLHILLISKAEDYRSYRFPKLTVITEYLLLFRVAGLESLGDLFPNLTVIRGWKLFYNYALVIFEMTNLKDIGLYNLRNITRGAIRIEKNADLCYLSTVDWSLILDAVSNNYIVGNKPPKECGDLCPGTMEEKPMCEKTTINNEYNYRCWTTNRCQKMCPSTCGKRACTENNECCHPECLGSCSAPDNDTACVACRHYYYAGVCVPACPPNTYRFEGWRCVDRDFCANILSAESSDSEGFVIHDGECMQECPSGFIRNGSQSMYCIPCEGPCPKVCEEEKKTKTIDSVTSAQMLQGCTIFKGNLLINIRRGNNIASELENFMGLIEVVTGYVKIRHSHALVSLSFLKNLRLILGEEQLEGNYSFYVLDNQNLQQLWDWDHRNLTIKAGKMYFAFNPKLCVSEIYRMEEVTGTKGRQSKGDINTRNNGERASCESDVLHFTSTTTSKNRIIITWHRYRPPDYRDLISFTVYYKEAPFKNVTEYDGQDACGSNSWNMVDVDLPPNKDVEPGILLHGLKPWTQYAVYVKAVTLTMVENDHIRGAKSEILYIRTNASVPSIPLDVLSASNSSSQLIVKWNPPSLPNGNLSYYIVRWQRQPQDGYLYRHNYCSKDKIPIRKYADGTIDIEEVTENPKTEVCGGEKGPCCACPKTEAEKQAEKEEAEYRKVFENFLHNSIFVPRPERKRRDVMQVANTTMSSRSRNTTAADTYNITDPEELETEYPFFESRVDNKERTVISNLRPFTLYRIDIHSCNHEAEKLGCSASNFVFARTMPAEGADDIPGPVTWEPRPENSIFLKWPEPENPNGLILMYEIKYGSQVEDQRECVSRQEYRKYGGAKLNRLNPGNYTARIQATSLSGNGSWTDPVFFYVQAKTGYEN

B1: anti-IGF1R antibody C8 (antibody, V domains shown)
VH: QVQLVQSGAEVKKPGSSVKVSCKASGGSFNSFSISWVRQAPGQGLEWMGGITPMFGIGDNAQKFQDRVAITADESMSTFYMELSNLRFEDTAMYFCAREVGGLGFDVWGQGTTVTVSS
VL: VIWMTQSPSSLSASVGDRVTFTCQASQHISKYLNWYQQKPGKAPKLLIYDASNLETGVPSRFSGSGSATDFTLTISSLQPEDFATYYCQQSYLTSYTFGQGTKVDIK
notes: Fully human antibody of an IgG class; also called clone C8
For the molecule B1, the response in experiment [1] was half-maximal at 16.1 nM (EC50). Also, the binding result with Insulin Receptor is listed as “no binding (tested: not given)”.

B2: anti-IGF1R antibody A6 (antibody, V domains shown)
VH: QVQLVQSGAEVMKPGASVKVSCKASGYTFTSYGISWVRQAPGQGLEWMGWISAYNGNTNYAQMLQGRVTMTTDTSTSTAYMELRSLRSDDTAVYYCARRGLSSYYYGMDVWGQGTTVTVSS
VL: QPVLTQPPSVSAAPGQKVTISCSGGTSNVANNYVSWYQQLPGTAPKLLIYGNSNRPSGVPDRFSGSKSGTSASLAITGLQAEDEADYYCQSYDTSLSGYVFGSGTKVTVL
notes: also called clone A6
As for B2, the concentration giving a half-maximal response (EC50) in experiment [1] came to 0.705 nM.

B3: anti-IGF1R antibody B10 (antibody, V domains shown)
VH: QVQLVQSGAEVKKPGASVKVSCKGSGYNFPTQAIHWVRQAPGQRLEWMGWTNTANGNAKYSQKFQGRVTITRDTYASTDYMELSSLTSEDTAIYYCTRDRFTGSGTYGMDVWGQGTTVTVSS
VL: SYELMQPSSVSVSPGQTARITCSGDLLTRRYARWFQQKPGQAPLLIIYRDTVRPSGIPERFSASSSGATITLTISGAQLEDEADYYCYSATDNNVVFGGGTKLTVL
notes: Fully human antibody of an IgG class; also called clone B10
B3: the EC50 in experiment [1] turned out to be 5.83 nM. In addition, the binding result in the experiment with Insulin Receptor is given as “no binding (tested: not given)”.

B4: anti-IGF1R antibody B9 (antibody, V domains shown)
VH: EVQLLESGGGLVQPGGSLRLSCAASGFTFSSYEMNWVRQAPGKGLEWVSYISTGDSTRSYADSVRGRFTISRDNAKNSLYLQMNSLRAEDTAVYYCARESGTWYGGWYFDLWGRGTLVTVSS
VL: QSVVTQPPSVSAAPGQKVTISCAGSTSNIGNNFVSWYQQLPGTAPKLLIYDNNKRPSEIPDRFSGSKSGTSATLGITGLQTGDEADYYCVTWDSSLSVVLFGGGTKVTVL
notes: Fully human antibody of an IgG class (captured on an anti-hIgG Fc sensor, detected with anti-human IgG); also called clone B9
B4: the EC50 in experiment [1] amounted to 0.0374 nM; in experiment [3], 3.7 pM. Besides, the “IC50 of inhibition of IGF1-stimulated IGF1R auto-phosphorylation in MCF7 cells” value in experiment [2] was found to be 94 pM. The molecule further came in with a dissociation constant Kd in the experiment with rhIGF1R of 1.25 nM. The binding result in the experiment with Insulin Receptor is recorded as “no binding (tested: not given)”.
